Reference: publication PMC13469128

How the values were obtained:
CD47 (Mus musculus) = CD47 (Mus musculus) (UniProt Q61735); settings: cited from earlier work
CD47 (Homo sapiens) = CD47 (Homo sapiens) (UniProt Q08722); settings: cited from earlier work
[1] = biological target: human CD47 on cells (human (endogenous in HCT116, MDA-MB-468, OVCAR3, HUVEC, C5120)) (UniProt Q08722)

Chain of SIRPα-Fc (P78324 31-373): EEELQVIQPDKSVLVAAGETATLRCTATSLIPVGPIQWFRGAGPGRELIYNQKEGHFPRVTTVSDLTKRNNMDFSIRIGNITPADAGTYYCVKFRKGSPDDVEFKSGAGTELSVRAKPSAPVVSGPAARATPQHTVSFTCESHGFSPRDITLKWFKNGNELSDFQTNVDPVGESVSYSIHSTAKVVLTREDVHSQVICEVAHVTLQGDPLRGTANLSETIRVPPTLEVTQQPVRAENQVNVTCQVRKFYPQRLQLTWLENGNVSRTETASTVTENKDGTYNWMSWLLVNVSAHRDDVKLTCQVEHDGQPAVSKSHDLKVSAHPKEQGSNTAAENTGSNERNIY
Chain of UniProt Q61735 (Q61735 19-303): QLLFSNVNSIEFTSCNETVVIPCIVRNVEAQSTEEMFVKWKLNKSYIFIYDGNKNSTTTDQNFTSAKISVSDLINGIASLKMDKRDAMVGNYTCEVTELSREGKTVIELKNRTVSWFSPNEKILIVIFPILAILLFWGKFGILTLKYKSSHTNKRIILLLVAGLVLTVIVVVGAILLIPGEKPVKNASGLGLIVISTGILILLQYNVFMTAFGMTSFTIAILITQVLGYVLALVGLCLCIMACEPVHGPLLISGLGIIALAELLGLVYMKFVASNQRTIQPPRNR

Substance | Kd (CD47 (Mus musculus)) | Kd (CD47 (Homo sapiens)) | macrophage ADCP on-chip of MDA-MB-468 cells, fold increase over the background; AdV delivery of SIRPα-Fc alone (blocks the CD47-SIRPα axis) [1]
SIRPα-Fc (from UniProt P78324) | 58 nM | 1 nM | 
SIRPα-Fc fusion protein |  |  | 1.7 fold
